This is an account of results in paper PMC5240567, “New Insights into Cooperative Binding of Homeodomain Transcription Factors PREP1 and PBX1 to DNA”.

Series [1] concerns the target T1, HOXB1HD;PBX1HD (;, UniProt P14653;P40424 171-266;227-317, |). The series can be described thus: fluorescence polarization; HOXB1HD titrated into preformed PBX1HD:PH; FP and EMSA: 20 mM Na/K phosphate pH 7.2, 150 mM NaCl, 5% glycerol, 1 mM TCEP, room temperature (FP 9 nM DNA, 30 min; EMSA gel run at 4 C in 0.5x TBE); NMR: 20. Conditions: protein: recombinant;recombinant; tags: GST cleaved (pGEX-6P);GST cleaved (pGEX-6P); copies: 1;1; label: 5' 6-FAM (FP); unlabeled in EMSA.

The target of series [2] is T1, HOXB1HD;PBX1HD. Put plainly: fluorescence polarization; HOXB1HD titrated into preformed PBX1HD:control; FP and EMSA: 20 mM Na/K phosphate pH 7.2, 150 mM NaCl, 5% glycerol, 1 mM TCEP, room temperature (FP 9 nM DNA, 30 min; EMSA gel run at 4 C in 0.5x TBE); NMR: 20. Conditions: protein: recombinant;recombinant; tags: GST cleaved (pGEX-6P);GST cleaved (pGEX-6P); copies: 1;1; label: 5' 6-FAM (FP); unlabeled in EMSA. Background: Fluorescence polarisation rises when a labelled molecule tumbles more slowly, as on binding a larger partner.

In series [3] the target is T2, PREP1HD KKKK->AAAA (UniProt P55347 240-344, K331A;K333A;K334A;K335A).
T2 sequence: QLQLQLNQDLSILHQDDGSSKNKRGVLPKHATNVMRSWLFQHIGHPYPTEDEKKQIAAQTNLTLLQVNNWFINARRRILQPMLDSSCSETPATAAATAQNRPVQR
Put plainly: fluorescence polarization; FP and EMSA: 20 mM Na/K phosphate pH 7.2, 150 mM NaCl, 5% glycerol, 1 mM TCEP, room temperature (FP 9 nM DNA, 30 min; EMSA gel run at 4 C in 0.5x TBE); NMR: 20. Conditions: protein: recombinant; tags: GST cleaved (pGEX-6P); label: 5' 6-FAM (FP); unlabeled in EMSA and NMR.

Series [4] deals with T1, HOXB1HD;PBX1HD. Put plainly: fluorescence polarization; HOXB1HD titrated into preformed PBX1HD:PMH; FP and EMSA: 20 mM Na/K phosphate pH 7.2, 150 mM NaCl, 5% glycerol, 1 mM TCEP, room temperature (FP 9 nM DNA, 30 min; EMSA gel run at 4 C in 0.5x TBE); NMR: 20. Conditions: protein: recombinant;recombinant; tags: GST cleaved (pGEX-6P);GST cleaved (pGEX-6P); copies: 1;1; label: 5' 6-FAM (FP); unlabeled in EMSA and NMR.

The target of series [5] is T3, PREP1HD;PBX1HD (;, UniProt P55347;P40424 240-344;227-317, |).
T3 sequence 1: T2 sequence with A92K, A94K, A95K, A96K
T3 sequence 2: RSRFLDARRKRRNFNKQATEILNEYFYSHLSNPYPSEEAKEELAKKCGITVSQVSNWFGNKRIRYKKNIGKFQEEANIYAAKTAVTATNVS
The series can be described thus: fluorescence polarization; PREP1HD titrated into preformed PBX1HD (0.3 uM):PMH; FP and EMSA: 20 mM Na/K phosphate pH 7.2, 150 mM NaCl, 5% glycerol, 1 mM TCEP, room temperature (FP 9 nM DNA, 30 min; EMSA gel run at 4 C in 0.5x TBE); NMR: 20. Conditions: protein: recombinant;recombinant; tags: GST cleaved (pGEX-6P);GST cleaved (pGEX-6P); copies: 1;1; label: 5' 6-FAM (FP); unlabeled in EMSA and NMR.

The target of series [6] is T4, PREP1hd;PBX1HD (;, UniProt P55347;P40424 257-325;227-317, |).
T4 sequence 1: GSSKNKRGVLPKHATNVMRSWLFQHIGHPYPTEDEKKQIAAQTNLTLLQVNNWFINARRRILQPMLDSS
T4 sequence 2: T3 sequence 2
The series can be described thus: fluorescence polarization; PREP1hd titrated into preformed PBX1HD (0.3 uM):PMH; FP and EMSA: 20 mM Na/K phosphate pH 7.2, 150 mM NaCl, 5% glycerol, 1 mM TCEP, room temperature (FP 9 nM DNA, 30 min; EMSA gel run at 4 C in 0.5x TBE); NMR: 20. Conditions: protein: recombinant;recombinant; tags: GST cleaved (pGEX-6P);GST cleaved (pGEX-6P); copies: 1;1; label: 5' 6-FAM (FP); unlabeled in EMSA and NMR.

Residue numbers refer to the chain shown, from its start.

T1 sequence (P14653 171-266, chain 1 of 2, one chain of several): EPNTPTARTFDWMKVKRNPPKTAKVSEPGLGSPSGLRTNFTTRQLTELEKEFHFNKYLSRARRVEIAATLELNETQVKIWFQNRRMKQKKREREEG

B1: PH (dsDNA)
DNA 1: AGAGTGATTGATAAGG
DNA 2: CCTTATCAATCACTCT
The term Kd denotes the constant that tells how readily two partners part at equilibrium. For B1, the dissociation constant (Kd) in series [1] is 0.39 ± 0.1 µM.

B2: Control (dsDNA)
DNA 1: AGGATAACCTGGGATT
DNA 2: AATCCCAGGTTATCCT
For the molecule B2, the Kd in series [2] was found to be 34.7 ± 1.7 µM.

B3: PMH (dsDNA)
DNA 1: AGTGATTGACAGATTC
DNA 2: GAATCTGTCAATCACT
Turning to B3, the Kd stood at 21.8 ± 0.8 µM in series [3], 1.3 ± 0.3 µM in series [4], 1.9 ± 0.5 µM in series [5] and 5.1 ± 1.8 µM in series [6].
